Assays:
human TNFα [1] = biological target: T1, human TNFα (human, UniProt P01375 77-233); assay: cell-based or functional assay
human TNFα [2] = biological target: T1, human TNFα; assay: SPR (Biacore T200), biotinylated antigen captured (Biotin-CAPture), trispecific as analyte;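 further: multicycle dose-response kinetics, analyte at 0.35–90 nM in running buffer, CAP chip regenerated with fresh antigen each cycle, sensorgrams fitted to a 1:1 binding model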
Procedure: (§1) In this experiment, the biotinylated antigens were captured using the Biotin-CAPture kit from Biacore. After each analyte injection cycle the CAP sensor chip was regenerated and new antigen was captured. Trispecific molecules were injected as analyte using a dose response multicycle kinetic assay with concentrations of the analyte ranging from 0.35 to 90 nM diluted in running buffer. Obtained sensorgrams were fitted using the 1:1 binding model.

human IL-17A [3] = biological target: T2, human IL-17A (human, UniProt Q16552 24-155); assay: as above
T2 construct: Recombinant human IL-17A (Peprotech Cat. No. 200-17), disulfide-linked homodimer from E. coli; Biotinylated or RPE-labelled in some assays; also called hIL-17A; IL-17A-RPE (labelled)
Procedure: as §1

human TNFα [4] = biological target: T1, human TNFα; assay: SPR (MASS-1), trispecific immobilised, antigens injected sequentially
Procedure: (§2) All possible sequences of antigen injection were tested resulting in six possible sequences.
(§3) To evaluate concomitant binding of each antigen to trispecific molecules, the binding level relative to the theoretical Rmax was calculated for each injection using the respective ligand and analyte molecular masses and the immobilization level of the trispecific molecules. The average of the maximum binding relative to theoretical Rmax for each antigen was obtained by averaging individual maximum binding relative to theoretical Rmax obtained for the two injections where the respective antigen was injected as first analyte (in the absence of other bound antigens). Next, the binding relative to the theoretical Rmax of each analyte injection was compared to its average maximum binding to calculate the fraction binding obtained in the presence of other bound antigens. […] The binding levels relative to the theoretical Rmax and the average of maximum binding (binding levels in the absence of other antigens) of each antigen were calculated.

human IL-17A [5] = biological target: T2, human IL-17A; assay: as above
Procedure: as §2, §3

human serum albumin [6] = biological target: T3, human serum albumin (human, UniProt P02768 25-609); assay: as above
T3 construct: also called HSA
Procedure: as §2, §3

human serum albumin [7] = biological target: T3, human serum albumin; assay: SPR (summary table), affinity to HSA at pH 5.5
Procedure: (§4) The binding to human serum albumin (HSA) and cynomolgus serum albumin (CSA) was assessed for purified trispecific molecules by running SPR spectroscopy on a MASS-1 device (Sierra Sensors). HSA was directly immobilized on a high capacity amine sensor chip (Sierra Sensors) and trispecific molecules were injected as analyte using a dose response multicycle kinetic assay with concentrations of the analyte ranging from 0.35 to 90 nM diluted either in running buffer at pH5.5 or pH7.5. Obtained sensorgrams were fitted using the 1:1 binding model. Affinity to CSA was assessed in a similar approach using a CSA immobilized sensor chip.

human TNFα [8] = biological target: T1, human TNFα; assay: cell-based or functional assay; remark: listed apart in the source
human IL-17A [9] = biological target: T2, human IL-17A; assay: cell-based or functional assay
human IL-17A [10] = biological target: T2, human IL-17A; assay: competitive ELISA: biotinylated human IL-17A preincubated with the trispecific molecule, then binding to coated IL-17RA detected (blocked ligand: IL-17RA) [left panel]
human serum albumin [11] = biological target: T3, human serum albumin; assay: SPR (MASS-1), trispecific immobilised, HSA injected as last analyte
Procedure: as §2, §3

human IL-17A [12] = biological target: T2, human IL-17A; assay: competitive ELISA: IL-17RA coated, biotinylated IL-17A preincubated with trispecific molecule
Procedure: (§5) Finally, Tetramethylbenzidine solution was added to develop the plate for 5 to 10 minutes and the reaction was stopped with 1 M HCl. The plate was read at 450 nm and 570 nm (reference wavelength).

human TNFα [13] = biological target: T1, human TNFα; assay: SPR (summary table), affinity to human TNF
Procedure: as §1

human IL-17A [14] = biological target: T2, human IL-17A; assay: SPR (summary table), affinity to human IL-17, capture setup
Procedure: as §1

human IL-17A [15] = biological target: T2, human IL-17A; assay: competitive ELISA, blocking of IL-17A/IL-17RA interaction (summary table)
Procedure: as §5

human serum albumin [16] = biological target: T3, human serum albumin; assay: SPR (MASS-1), HSA immobilised, trispecific as analyte, pH 5.5
Procedure: as §4

human serum albumin [17] = biological target: T3, human serum albumin; assay: SPR (MASS-1), HSA immobilised, trispecific as analyte, pH 7.4
Procedure: as §4

cynomolgus monkey IL-17A [18] = biological target: T4, cynomolgus monkey IL-17A (Macaca fascicularis (cynomolgus monkey)); assay: SPR (Biacore T200), cynomolgus IL-17A, scFv as analyte
T4 construct: also called cyno IL-17A; cyno IL17A
Procedure: (§6) After each analyte injection cycle the CAP sensor chip was regenerated and new antigen was captured. The scFvs were injected as analyte using a dose response multi-cycle kinetic assay with concentrations of the analyte ranging from 0.35 to 90 nM diluted in running buffer. Obtained sensorgrams were fitted using the 1:1 binding model. In addition, the scFvs were analyzed in an alternative SPR assay setup (“direct setup”).

human IL-17A [19] = biological target: T2, human IL-17A; assay: SPR (Biacore T200), direct setup: IL-17A amine-coupled on CM5, scFv as analyte
Procedure: as §6

human IL-17A [20] = biological target: T2, human IL-17A; assay: SPR (Biacore T200), capture setup: biotinylated IL-17A captured, scFv as analyte
Procedure: as §6

human IL-17A [21] = biological target: T2, human IL-17A; assay: competitive ELISA: IL-17RA coated, biotinylated IL-17A preincubated with scFv
Procedure: Finally, Tetramethylbenzidin solution (KPL, Cat. No. 53-00-00) was added to develop the plate for 5 to 10 minutes and the reaction was stopped with 1 M HCl. The plate was read using a microtiter plate reader (Infinity reader M200 Pro, Tecan) at a wavelength of 450 nm and 570 nm (reference wavelength).

cynomolgus monkey IL-17A [22] = biological target: T4, cynomolgus monkey IL-17A; assay: SPR (Biacore T200)
Procedure: as §6

human IL-17A [23] = biological target: T2, human IL-17A; assay: cell-based or functional assay; remark: listed apart in the source

B1: A4 (trispecific tribody, Fab-(scFv)2) (other)
light: DIQMTQSPSSLSASVGDRVTITCQASQTINYWLAWYQQKPGKAPKLLIYRASTLASGVPSRFSGSGSGTDFTLTISSLQPEDFATYYCQNYYYSTSRSYGFGGGTKLTVLGRTRTVAAPSVFIFPPSDEQLKSGTASVVCLLNNFYPREAKVQWKVDNALQSGNSQESVTEQDSKDSTYSLSSTLTLSKADYEKHKVYACEVTHQGLSSPVTKSFNRGECGGGGSGGGGSDIQMTQSPSSLSASVGDRVTINCQASESISSWLAWYQQKPGKRPKLLIYKASTLASGVPSRFSGSGSGTDYTLTISSLQPEDFATYYCQGYYLDSSVDDNVFGGGTKLTVLGGGGGSGGGGSGGGGSGGGGSEVQLVESGGGLVQPGGSLRLSCAASGIDFSTYGISWVRQAPGKGLEWIAYIYPDYGITDYASWVNGRFTISLDNAQNTVYLQMNSLRAEDTAVYYCARSGSYYSRGWGAHYFNLWGQGTLVTVSS
heavy: EVQLVESGGGLVQPGGSLRLSCAASGFSFSSDYWMCWVRQAPGKGLEWIGCIYAGDVDDTDYASWARGRFTISRDNSKNTVYLQMNSLRAEDTAVYYCARVDGFDITYFDLWGQGTLVTVSSASTKGPSVFPLAPSSKSTSGGTAALGCLVKDYFPEPVTVSWNSGALTSGVHTFPAVLQSSGLYSLSSVVTVPSSSLGTQTYICNVNHKPSNTKVDKKVEPKSCGGGGSGGGGSDIQMTQSPSSLSASVGDRVTITCQSSESVYSNNQLSWYQQKPGQPPKLLIYDASDLASGVPSRFSGSGSGTDFTLTISSLQPEDFATYYCAGGFSSSSDTAFGGGTKLTVLGGGGGSGGGGSGGGGSGGGGSEVQLVESGGGLVQPGGSLRLSCAASGFSLSSNAMGWVRQAPGKGLEYIGIISVGGFTYYASWAKGRFTISRDNSKNTVYLQMNSLRAEDTATYFCARDRHGGDSSGAFYLWGQGTLVTVSS
notes: Trispecific tribody
Human TNFα [1]
  IC50 in L929 assay, cell viability: 0.08 nM
  rel. IC50 in L929 assay (IC50, A13/IC50, test sample, nM): 0.2
Human TNFα [2]
  Kd: 0.257 nM
  koff: 2.33e-05 s⁻¹
  kon: 90800 M⁻¹ s⁻¹
Human IL-17A [3]
  Kd: 0.337 nM
  koff: 7.23e-05 s⁻¹
  kon: 215000 M⁻¹ s⁻¹
Human TNFα [4]
  antigen binding relative to average maximum binding: ≥ 70%
Human IL-17A [5]
  antigen binding relative to average maximum binding: ≥ 70%
Human serum albumin [6]
  antigen binding relative to average maximum binding: ≥ 70%
Human serum albumin [7]
  Kd: 1.67 nM
Human TNFα [8]
  rel. IC50 to A13 (nM) in HT-29 assay, +HSA: 0.3
  rel. IC50 to A13 (nM) in HT-29 assay, -HSA: 0.6
Human IL-17A [9]
  rel. IC50 to secukinumab (ng/ml) in HT-29 assay, +HSA: 6
  rel. IC50 to secukinumab (ng/ml) in HT-29 assay, -HSA: 7.1
Human IL-17A [10]
  IC50 (read off the curve): ~3 ng/mL
Human serum albumin [11]
  relative binding level compared to average maximum binding: ~70%
Human IL-17A [12]
  rel. IC50 to secukinumab (IC50, secukinumab/IC50, test sample, ng/ml): 6.3
Human TNFα [13]
  Kd: 0.257 nM
Human IL-17A [14]
  Kd: 0.337 nM
Human IL-17A [15]
  rel. IC50 (IC50, secukinumab/IC50, test sample, ng/ml): 6.3
Human serum albumin [16]
  Kd: 1.67 nM
  koff: 0.000308 s⁻¹
  kon: 185000 M⁻¹ s⁻¹
Human serum albumin [17]
  Kd: 4.79 nM
  koff: 0.000417 s⁻¹
  kon: 87200 M⁻¹ s⁻¹

B2: A3 (trispecific tribody, Fab-(scFv)2) (other)
light: DIQMTQSPSSLSASVGDRVTITCQSSESVYSNNQLSWYQQKPGQPPKLLIYDASDLASGVPSRFSGSGSGTDFTLTISSLQPEDFATYYCAGGFSSSSDTAFGGGTKLTVLGRTRTVAAPSVFIFPPSDEQLKSGTASVVCLLNNFYPREAKVQWKVDNALQSGNSQESVTEQDSKDSTYSLSSTLTLSKADYEKHKVYACEVTHQGLSSPVTKSFNRGECGGGGSGGGGSDIQMTQSPSSLSASVGDRVTINCQASESISSWLAWYQQKPGKRPKLLIYKASTLASGVPSRFSGSGSGTDYTLTISSLQPEDFATYYCQGYYLDSSVDDNVFGGGTKLTVLGGGGGSGGGGSGGGGSGGGGSEVQLVESGGGLVQPGGSLRLSCAASGIDFSTYGISWVRQAPGKGLEWIAYIYPDYGITDYASWVNGRFTISLDNAQNTVYLQMNSLRAEDTAVYYCARSGSYYSRGWGAHYFNLWGQGTLVTVSS
heavy: EVQLVESGGGLVQPGGSLRLSCAASGFSLSSNAMGWVRQAPGKGLEYIGIISVGGFTYYASWAKGRFTISRDNSKNTVYLQMNSLRAEDTATYFCARDRHGGDSSGAFYLWGQGTLVTVSSASTKGPSVFPLAPSSKSTSGGTAALGCLVKDYFPEPVTVSWNSGALTSGVHTFPAVLQSSGLYSLSSVVTVPSSSLGTQTYICNVNHKPSNTKVDKKVEPKSCGGGGSGGGGSDIQMTQSPSSLSASVGDRVTITCQASQTINYWLAWYQQKPGKAPKLLIYRASTLASGVPSRFSGSGSGTDFTLTISSLQPEDFATYYCQNYYYSTSRSYGFGGGTKLTVLGGGGGSGGGGSGGGGSGGGGSEVQLVESGGGLVQPGGSLRLSCAASGFSFSSDYWMCWVRQAPGKGLEWIGCIYAGDVDDTDYASWARGRFTISRDNSKNTVYLQMNSLRAEDTAVYYCARVDGFDITYFDLWGQGTLVTVSS
notes: Trispecific anti-IL-17A x TNFα x HSA tribody; Expressed in CHO-S
Human TNFα [1]
  IC50 in L929 assay, cell viability: 4.5 nM
  rel. IC50 in L929 assay (IC50, A13/IC50, test sample, nM): 0.003
Human TNFα [2]
  Kd: < 0.0232 nM
  koff: < 1e-06 s⁻¹
  kon: 43100 M⁻¹ s⁻¹
Human IL-17A [3]
  Kd: 1.53 nM
  koff: 9.04e-05 s⁻¹
  kon: 59100 M⁻¹ s⁻¹
Human TNFα [4]
  antigen binding relative to average maximum binding: ≥ 70%
Human IL-17A [5]
  antigen binding relative to average maximum binding: ≥ 70%
Human serum albumin [6]
  antigen binding relative to average maximum binding: ≥ 70%
Human serum albumin [7]
  Kd: 0.947 nM
Human TNFα [8]
  rel. IC50 to A13 (nM) in HT-29 assay, +HSA: 0.5
  rel. IC50 to A13 (nM) in HT-29 assay, -HSA: 0.2
Human IL-17A [9]
  rel. IC50 to secukinumab (ng/ml) in HT-29 assay, +HSA: 11.8
  rel. IC50 to secukinumab (ng/ml) in HT-29 assay, -HSA: 2.4
Human IL-17A [10]
  IC50 (read off the curve): ~9 ng/mL
Human IL-17A [12]
  rel. IC50 to secukinumab (IC50, secukinumab/IC50, test sample, ng/ml): 2.2
Human TNFα [13]
  Kd: < 0.0232 nM
Human IL-17A [14]
  Kd: 1.53 nM
Human IL-17A [15]
  rel. IC50 (IC50, secukinumab/IC50, test sample, ng/ml): 2.2
Human serum albumin [16]
  Kd: 0.947 nM
  koff: 0.00059 s⁻¹
  kon: 623000 M⁻¹ s⁻¹
Human serum albumin [17]
  Kd: 1.37 nM
  koff: 0.000557 s⁻¹
  kon: 406000 M⁻¹ s⁻¹

B3: A2 (humanized anti-IL-17A scFv, STR graft of 27-07-G02) (scFv)
scFv: DIQMTQSPSSLSASVGDRVTITCQASQTINYWLAWYQQKPGKPPKLLIYRASTLASGVPSRFSGSGSGTDFTLTISSLQPEDFATYYCQNYYYSTSRSYGFGGGTKLTVLGGGGGSGGGGSGGGGSGGGGSEVQLVESGGGLVKPEGSLRLSCAASGFSFSSDYWMCWVRQAPGKGLEWIACIYAGDVDDTDYASWARGRFTISRDNSKNTVYLQMNSLRAEDTAVYYCARVDGFDITYFDLWGQGTLVTVSS
notes: VL-linker-VH; also called 27-07-G02-sc02
Cynomolgus monkey IL-17A [18]
  Kd: 5.19 nM
  koff: 0.000868 s⁻¹
  kon: 167000 M⁻¹ s⁻¹
Human IL-17A [19]
  Kd: 0.0551 nM
  koff: 5.92e-05 s⁻¹
  kon: 1.08e+06 M⁻¹ s⁻¹
Human IL-17A [20]
  Kd: 3.07 nM
  koff: 0.000697 s⁻¹
  kon: 227000 M⁻¹ s⁻¹
Human IL-17A [21]
  IC50: 1.6 ng/mL
Cynomolgus monkey IL-17A [22]
  KD, cyno/KD, human: 1.69
Human IL-17A [23]
  IC50 in HT-29 assay, GRO-α secretion: 0.1 ng/mL
